Experimental findings from the nanobody polyreactivity screen of Harvey et al. (2022) are described below.

The data set can be described thus: yeast display, Sf9 membrane polyspecificity reagent, FACS + sequencing; frameworks hold sequencing errors. In short, it runs like this:
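A synthetic nanobody library was expressed on Saccharomyces cerevisiae BJ5465 by galactose induction for 36–48 hours. The library was stained for 1 hour at 4 °C with 10% biotinylated, detergent-solubilized Sf9 membrane reagent and enriched with streptavidin microbeads before FACS. Low and high (top ~1%) gates were set on anti-HA fluorescence for expression and streptavidin fluorescence for reagent binding, and each polyreactivity label reflects the gate of origin.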
For “QVQLVESGGGLVQAGGSLRLSCAASGIIFYKNVMGWYRQAPGKERELVAAINRSGGRTYYADSVKGRFTISRDNAKNTVYLQMNSLKPEDTAVYYCARSGTVFGRTYDYWGQGTQVTVSS”, the “polyreactivity (PSR sort gate)” value is “high polyreactivity”.

For “QVQLVESGGGLVQAGGSLRLSCAASGIIFYLYTIGWYRQAPGKEREFVADISSGTTTYYADSVKGRFTISRDNAKNTVYLQMNSLKPEDTAVYYCNAQYNYYTWKLAYTFDYWGQGTQVTVSS”, the “polyreactivity (PSR sort gate)” value is listed as “high polyreactivity”.

Take “QVQLVESGGGLVQAGGSLRLSCAASGIIFYNKAMGWYRQAPGKERELVAAITWSDGSTYYADSVKGRFTISRDNAKTTVYLQMNSMKPEDTAVYYCARRSGDERRDGDYWGQGTQVTVSS”: the “polyreactivity (PSR sort gate)” value was “low polyreactivity”.

Regarding “QVQLVESGGGLVQAGGSLRLSCAASGIIFYPYAMGWYRQAPGKESELVADITSGGGTNYAYSVKGRITISRDNAKNTVYLQMNSLKQEDTAVYYCAAEVRGYHWGTYYEFYYWGQGTQVTVSS”, the “polyreactivity (PSR sort gate)” value is on record as “low polyreactivity”.

As to “QVQLVESGGGLVQAGGSLRLSCAASGIIFYRNAMGWYRQAPGKERELVAGITSGGSTYYADSVKGRFTISRDNAKNTVYLQMNSLIPEDTAVYYCAAYYRASQRYLQYGYWGQGTQVNVSS”, the “polyreactivity (PSR sort gate)” value is “high polyreactivity”.

Consider “QVQLVESGGGLVQAGGSLRLSCAASGIIFYRYALGWYRQAPRTERELVAAISSSGTNTYYADSVKGRFTISRDNAKNTVYLQMNSLKPEDTAVYYCNADTLADRSTYDYWGQGTQVNVSS”, for which the “polyreactivity (PSR sort gate)” value is on record as “low polyreactivity”.

Take “QVQLVESGGGLVQAGGSLRLSCAASGIIFYRYAMGWYRQAPGKERELVATIRRSDGSTYYADSVKGRFTISRDNAKNTVYLQMKSLKPVDTAVYYCAARRPYSSGYDYWGQGSQVTVSS”: the “polyreactivity (PSR sort gate)” value is “high polyreactivity”.

“QVQLVESGGGLVQAGGSLRLSCAASGIIFYRYAMVWYRQAPGKERELVAAITWSGVSTSYADSVKGRFTISRDNAMNTVYLQMTSLKPEDTAVYYCNKDQGTLYGDMDSWGQGTQVTVSS”: the “polyreactivity (PSR sort gate)” value is “low polyreactivity”.

On to “QVQLVESGGGLVQAGGSLRLSCAASGIIFYRYVMGWYRQAHGKERELVAAINNDGASTHYADSVKGRFTISRDNAKNTVYLQMNSLKPEDTAVYYCATRDSLYYRYWSNNYWGQGTQVTVSS”, for which the “polyreactivity (PSR sort gate)” value was “high polyreactivity”.

Consider “QVQLVESGGGLVQAGGSLRLSCAASGIIFYTYAMGWYRQAPGKEREFVAGIRWSGSSTYYADSVKGRFTISRDNAKNTVYLQMNCLNPEDTAVYYCATGQPYGPLFSMGYGYWGQVTQVTVSS”, for which the “polyreactivity (PSR sort gate)” value is “high polyreactivity”.

For “QVQLVESGGGLVQAGGSLRLSCAASGIIFYWNAMGWYRQAPGKERELVAGITRGGSTYYADSVKGRFTISRDNATNTVYLLMNSLKPEDTAVYYCAKRQASRRVSYSRYDYWGQGTQVTVSS”, the “polyreactivity (PSR sort gate)” value is given as “high polyreactivity”.

For “QVQLVESGGGLVQAGGSLRLSCAASGIIFYWYAMGWYRQAPGKERELVAGIDSDGSTNYADSVKGRFTISRDNAKNTVYLQMNSLKPEDTAVYYCAAVQGYRFYESYYWGQGTQVTVSS”, the “polyreactivity (PSR sort gate)” value is “low polyreactivity”.

Turning to “QVQLVESGGGLVQAGGSLRLSCAASGIIFYYNAMGWYRQAPGKERELVAAINDSGNTYYADSVKGRFTISRDNAKNTVYFQMNSLKPEDTAVYYCAADVWKYWGYDYWGQGTQVTVSS”, the “polyreactivity (PSR sort gate)” value is listed as “low polyreactivity”.

For “QVQLVESGGGLVQAGGSLRLSCAASGIIFYYYAMGSDRQAPGKERELVAAITSSGVRTYYADSVKGRFTISRDNAKNTVYLQMNSLKPEDTAVYYCAASSVLYSRSYDYWGQGTQVTVSS”, the “polyreactivity (PSR sort gate)” value is “high polyreactivity”.

For “QVQLVESGGGLVQAGGSLRLSCAASGIIFYYYAMGWYRQAPGTERELVARISLSGGSTYYADSVKGRFTISRDNAKNTVYLQMNSLKPEDTAVYYCATRSWYKRQTYDYWGQGTQVTVSS”, the “polyreactivity (PSR sort gate)” value is recorded as “high polyreactivity”.

With “QVQLVESGGGLVQAGGSLRLSCAASGIIFYYYAMGWYRQATGKERELVAAITRSGGSTYYADSVKGRFTISRDNAKNTVYLQMNSLKPEDTAVYYCAAARLPYYVGRYYYWGQGTQVTVSS”, the “polyreactivity (PSR sort gate)” value is listed as “high polyreactivity”.

As for “QVQLVESGGGLVQAGGSLRLSCAASGIIIDSNAMGWYRQAPGKERELVAAITSGGSTKYADSVKGRFTISRDNAKNTVYLQMNSLKPEDTAVYYCNADFRPADQWSYFYEMDSWGQGTQVTVSS”, the “polyreactivity (PSR sort gate)” value is “low polyreactivity”.

Regarding “QVQLVESGGGLVQAGGSLRLSCAASGIIIDYNAMGWYRQAHGKERELVAAISSRGGSTYYADSVKGRFTISRDNAKNTVYLQMNSLKPEDTAVYYCAKVIGKYVNSYYWGQGTQVTVSS”, the “polyreactivity (PSR sort gate)” value is listed as “low polyreactivity”.

Turning to “QVQLVESGGGLVQAGGSLRLSCAASGIIIKRNAMGWYRQAPGKEMELVAAISRSGGSTYYSDSVKGRFTISRDIAMNTVYLQMNSLKAEDTAVYYCAADWSEYPYDYWGQGTQVTVSS”, the “polyreactivity (PSR sort gate)” value is “low polyreactivity”.

Turning to “QVQLVESGGGLVQAGGSLRLSCAASGIIIPVYAMGWYRQAPGKERELVAAISSGGSTYYADSVKGRFTISRDNAKNTVYLQMNSLKPEDTAVFYCAAGYQKGYADPGFDYWGQGTQVTVSS”, the “polyreactivity (PSR sort gate)” value was “high polyreactivity”.

In the case of “QVQLVESGGGLVQAGGSLRLSCAASGIIIQINAMGWYRPAPGKERELVAAITIDGTTNYADSVKGRFTISRDNAKNTVYLQMNILKPEDTAVYYCARRRSVYVWEPYQYDYWGQGTQVTVSS”, the “polyreactivity (PSR sort gate)” value is “low polyreactivity”.

In the case of “QVQLVESGGGLVQAGGSLRLSCAASGIIIYRYVMGWYRPAPGKERELVASISSSGGRTHYADSVKGRFTISRDNAKNTVYLQMNSLKPEDTAVYYCAAVQRSSFYRRYDYWGQGTQVTVSS”, the “polyreactivity (PSR sort gate)” value is “high polyreactivity”.

Regarding “QVQLVESGGGLVQAGGSLRLSCAASGIILGSNAKGWYRQAPGKERELVAGITSGGGTYYADSVKGRFTISRDNAKKTVYLQMNSLKPEDTAVYYCAKLYFHYYRYGYWGQGTQVTVSS”, the “polyreactivity (PSR sort gate)” value is given as “low polyreactivity”.

Take “QVQLVESGGGLVQAGGSLRLSCAASGIILHYYAMGWYRQAPGKQRELVAAISARGGRTYYADSVKGRFTISRDNAKNTVYLQMNSLKPEDTAVYYCAAVTVASPTRMDYWGQGTLVTVSS”: the “polyreactivity (PSR sort gate)” value is “high polyreactivity”.

In the case of “QVQLVESGGGLVQAGGSLRLSCAASGIILIQNSMGWSRHAPGKERELVAAISTRGGRTYYADSVKGRFTISRDNAKNTVYLQMNSLKPEDTAVYYCAAYRTTPYRDYKMDYWGQGTQVTVSS”, the “polyreactivity (PSR sort gate)” value is on record as “high polyreactivity”.

Turning to “QVQLVESGGGLVQAGGSLRLSCAASGIILPYYAMGWYRQAPGKERELGASISYDGTSTYYADSVKGRFTISRDNAKNTVYLQMNSLKPEDTAVYYCAAVQWWPRASYSMDYWGQGTQVTASS”, the “polyreactivity (PSR sort gate)” value is reported as “low polyreactivity”.

For the sequence “QVQLVESGGGLVQAGGSLRLSCAASGIILRRYAMGWYRQPPGKERELVAAISSRGGSTYYADSVKGRFTISRDNAKNTVYLQMNSLKPEDTAVYYCAAEDYWYDFDYWGQGTQVTVSS”, the “polyreactivity (PSR sort gate)” value is listed as “high polyreactivity”.

Consider “QVQLVESGGGLVQAGGSLRLSCAASGIILRYYVMGWYRQAPGKERELVAAITSRGGSTYYADSVKGRFTISRDNAKITVYLQMNSLKPEDTAVYYCAAGYRNVNTFDYWGQGTQVTVSS”, for which the “polyreactivity (PSR sort gate)” value is on record as “high polyreactivity”.

With “QVQLVESGGGLVQAGGSLRLSCAASGIILSPYTMGWYIQAPGKERELVAGISRSGGTTYYADSVKGRFTISRDNAKNTVYLQMNSLKPEDTAVYYCAAGLIYGYSGYDSWGQGTQVTVSS”, the “polyreactivity (PSR sort gate)” value is “low polyreactivity”.

With “QVQLVESGGGLVQAGGSLRLSCAASGIIMPSYVMGWYRQAPGKERELVAAITRSGGNTYYADSVKGRFTISRDNAKNTVYLQMNSLKPEDTAVYYCAARAPVRRYRAYEFDYWGQGTQVTVSS”, the “polyreactivity (PSR sort gate)” value is “high polyreactivity”.
